Measurements as given in IntAct's records for PubMed 35512704.

B1: Mothers against decapentaplegic homolog 4 (Homo sapiens), Q13485 (parent)
chain: MDNMSITNTPTSNDACLSIVHSLMCHRQGGESETFAKRAIESLVKKLKEKKDELDSLITAITTNGAHPSKCVTIQRTLDGRLQVAGRKGFPHVIYARLWRWPDLHKNELKHVKYCQYAFDLKCDSVCVNPYHYERVVSPGIDLSGLTLQSNAPSSMMVKDEYVHDFEGQPSLSTEGHSIQTIQHPPSNRASTETYSTPALLAPSESNATSTANFPNIPVASTSQPASILGGSHSEGLLQIASGPQPGQQQNGFTGQPATYHHNSTTTWTGSRTAPYTPNLPHHQNGHLQHHPPMPPHPGHYWPVHNELAFQPPISNHPAPEYWCSIAYFEMDVQVGETFKVPSSCPIVTVDGYVDPSGGDRFCLGQLSNVHRTEAIERARLHIGKGVQLECKGEGDVWVRCLSDHAVFVQSYYLDREAGRAPGDAVHKIYPSAYIKVFDLRQCHRQMQQQAATAQAAAAAQAAAVAGNIPGPGSVGGIAPAISLSAAAGIGVDDLRRLCILRMSFVKGWGPDYPRQSIKETPCWIEIHLHRALQLLDEVLHTMPIADPQPLD
partner: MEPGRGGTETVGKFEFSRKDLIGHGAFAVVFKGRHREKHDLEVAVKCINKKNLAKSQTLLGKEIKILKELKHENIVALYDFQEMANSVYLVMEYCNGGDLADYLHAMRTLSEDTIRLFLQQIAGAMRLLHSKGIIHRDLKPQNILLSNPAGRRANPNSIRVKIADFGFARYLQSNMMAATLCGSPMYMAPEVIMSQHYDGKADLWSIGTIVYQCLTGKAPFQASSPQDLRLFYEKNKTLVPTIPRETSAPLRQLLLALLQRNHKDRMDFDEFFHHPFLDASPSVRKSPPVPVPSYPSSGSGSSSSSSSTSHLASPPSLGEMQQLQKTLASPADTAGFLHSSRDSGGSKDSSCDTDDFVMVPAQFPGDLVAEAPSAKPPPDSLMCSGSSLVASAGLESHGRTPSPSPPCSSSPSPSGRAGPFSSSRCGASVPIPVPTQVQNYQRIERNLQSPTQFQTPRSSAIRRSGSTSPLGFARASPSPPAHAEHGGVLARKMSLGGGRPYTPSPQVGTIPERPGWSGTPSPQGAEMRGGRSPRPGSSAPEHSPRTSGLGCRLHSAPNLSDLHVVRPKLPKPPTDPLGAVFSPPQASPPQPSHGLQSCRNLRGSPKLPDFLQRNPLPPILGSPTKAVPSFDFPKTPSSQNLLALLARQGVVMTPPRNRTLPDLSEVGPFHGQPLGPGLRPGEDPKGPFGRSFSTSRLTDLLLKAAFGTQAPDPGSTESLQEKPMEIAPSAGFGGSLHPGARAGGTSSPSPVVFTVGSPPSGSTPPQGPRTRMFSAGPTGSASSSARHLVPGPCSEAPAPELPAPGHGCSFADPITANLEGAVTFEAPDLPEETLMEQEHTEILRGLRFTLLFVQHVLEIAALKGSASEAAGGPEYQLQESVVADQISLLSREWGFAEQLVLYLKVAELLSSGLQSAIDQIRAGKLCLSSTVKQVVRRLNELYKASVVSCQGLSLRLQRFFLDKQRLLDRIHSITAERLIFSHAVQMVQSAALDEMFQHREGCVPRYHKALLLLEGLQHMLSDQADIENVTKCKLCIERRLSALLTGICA
B2: Mothers against decapentaplegic homolog 4 (Homo sapiens), Q13485 (parent)
chain: B1 chain
partner: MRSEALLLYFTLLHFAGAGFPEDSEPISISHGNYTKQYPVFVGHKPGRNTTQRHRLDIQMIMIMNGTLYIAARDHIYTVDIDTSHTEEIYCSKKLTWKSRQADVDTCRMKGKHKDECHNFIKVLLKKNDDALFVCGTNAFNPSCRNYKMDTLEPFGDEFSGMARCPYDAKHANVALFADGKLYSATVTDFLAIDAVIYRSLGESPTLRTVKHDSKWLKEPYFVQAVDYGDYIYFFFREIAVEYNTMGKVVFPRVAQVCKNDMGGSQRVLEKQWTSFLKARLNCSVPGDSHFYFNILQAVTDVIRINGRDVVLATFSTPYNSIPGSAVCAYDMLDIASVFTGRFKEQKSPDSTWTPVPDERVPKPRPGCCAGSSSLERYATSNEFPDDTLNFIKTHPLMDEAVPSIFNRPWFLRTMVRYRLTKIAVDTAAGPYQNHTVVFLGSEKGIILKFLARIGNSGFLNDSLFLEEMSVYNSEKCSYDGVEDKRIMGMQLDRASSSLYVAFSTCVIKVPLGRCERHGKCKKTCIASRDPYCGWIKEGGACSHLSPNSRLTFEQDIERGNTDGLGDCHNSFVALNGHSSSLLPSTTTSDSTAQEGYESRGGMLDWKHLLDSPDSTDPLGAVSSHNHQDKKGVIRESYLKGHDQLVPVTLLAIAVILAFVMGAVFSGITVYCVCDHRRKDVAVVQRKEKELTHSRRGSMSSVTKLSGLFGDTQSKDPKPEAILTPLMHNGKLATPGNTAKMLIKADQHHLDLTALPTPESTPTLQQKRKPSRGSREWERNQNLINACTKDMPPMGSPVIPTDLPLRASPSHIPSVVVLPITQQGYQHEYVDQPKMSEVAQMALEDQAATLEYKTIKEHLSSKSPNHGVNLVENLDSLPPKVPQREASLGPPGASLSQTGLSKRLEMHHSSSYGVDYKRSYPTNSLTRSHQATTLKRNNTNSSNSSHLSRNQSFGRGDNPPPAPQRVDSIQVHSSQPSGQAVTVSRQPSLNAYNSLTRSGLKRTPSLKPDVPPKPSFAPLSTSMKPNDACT
B3: Mothers against decapentaplegic homolog 4 (Homo sapiens), Q13485 (parent)
chain: B1 chain
partner: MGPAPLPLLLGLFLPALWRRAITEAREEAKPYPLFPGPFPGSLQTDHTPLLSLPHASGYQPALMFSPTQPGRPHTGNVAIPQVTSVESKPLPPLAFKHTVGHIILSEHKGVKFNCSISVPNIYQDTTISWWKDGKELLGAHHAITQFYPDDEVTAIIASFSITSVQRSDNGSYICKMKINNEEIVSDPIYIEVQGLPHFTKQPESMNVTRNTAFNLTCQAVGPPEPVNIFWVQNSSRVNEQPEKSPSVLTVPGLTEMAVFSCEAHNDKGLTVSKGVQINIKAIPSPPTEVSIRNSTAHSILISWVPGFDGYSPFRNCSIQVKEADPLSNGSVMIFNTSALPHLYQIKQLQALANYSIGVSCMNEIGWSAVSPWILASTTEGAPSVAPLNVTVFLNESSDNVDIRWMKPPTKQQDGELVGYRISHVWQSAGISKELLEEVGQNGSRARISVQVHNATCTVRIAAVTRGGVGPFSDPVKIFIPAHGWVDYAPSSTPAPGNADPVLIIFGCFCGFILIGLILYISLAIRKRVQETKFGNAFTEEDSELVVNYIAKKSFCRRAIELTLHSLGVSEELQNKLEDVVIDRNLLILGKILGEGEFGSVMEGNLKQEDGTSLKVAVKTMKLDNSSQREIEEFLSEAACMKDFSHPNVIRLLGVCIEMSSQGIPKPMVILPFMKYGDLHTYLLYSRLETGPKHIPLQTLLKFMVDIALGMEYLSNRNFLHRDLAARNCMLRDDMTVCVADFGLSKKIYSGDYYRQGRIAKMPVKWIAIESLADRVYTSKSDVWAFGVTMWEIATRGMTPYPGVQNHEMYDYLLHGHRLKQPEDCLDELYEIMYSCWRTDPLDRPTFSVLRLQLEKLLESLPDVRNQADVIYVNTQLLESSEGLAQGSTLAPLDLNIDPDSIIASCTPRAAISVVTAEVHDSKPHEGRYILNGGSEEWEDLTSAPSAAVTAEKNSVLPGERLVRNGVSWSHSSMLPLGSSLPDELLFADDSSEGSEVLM

Variants of: B1
Details: with ulk1_human ULK1, O75385

| effect of a mutation on the interaction | Variant |
| --- | --- |
| with no effect | R361H |

Variants of: B1
Details: with ulk1_human ULK1, O75385
Remark: another data set of the same source

| effect of a mutation on the interaction | Variant |
| --- | --- |
| with no effect | R361C |

Variants of: B1
Details: with ulk1_human ULK1, O75385
Remark: another data set of the same source

| effect of a mutation on the interaction | Variant |
| --- | --- |
| with no effect | D351H |

Variants of: B1
Details: with ulk1_human ULK1, O75385
Remark: another data set of the same source

| effect of a mutation on the interaction | Variant |
| --- | --- |
| with no effect | G386D |

Variants of: B2
Details: with sem6a_human SEMA6A

| effect of a mutation on the interaction | Variant |
| --- | --- |
| with no effect | G386D |

Variants of: B2
Details: with sem6a_human SEMA6A
Remark: another data set of the same source

| effect of a mutation on the interaction | Variant |
| --- | --- |
| with no effect | D351H |

Variants of: B2
Details: with sem6a_human SEMA6A
Remark: another data set of the same source

| effect of a mutation on the interaction | Variant |
| --- | --- |
| with no effect | R361H |

Variants of: B2
Details: with sem6a_human SEMA6A
Remark: another data set of the same source

| effect of a mutation on the interaction | Variant |
| --- | --- |
| with no effect | R361C |

Variants of: B3
Details: with mertk_human MERTK

| effect of a mutation on the interaction | Variant |
| --- | --- |
| with no effect | D351H |

Variants of: B3
Details: with mertk_human MERTK
Remark: another data set of the same source

| effect of a mutation on the interaction | Variant |
| --- | --- |
| with no effect | G386D |

Variants of: B3
Details: with mertk_human MERTK
Remark: another data set of the same source

| effect of a mutation on the interaction | Variant |
| --- | --- |
| with no effect | R361C |
